Experimental data taken from patent US20260152555A1 (HUAHUI HEALTH, published 2026).

Tests used:
[1] = target: T1, hCD112-ECD-hFc (extracellular domain of hCD112 fused to the Fc domain of human IgG1) (human, UniProt Q92692 32-360); experiment: SPR (Biacore T200), single injection; hCD112R-ECD-mFc variant captured on anti-mFc Ab, hCD112-ECD-hFc injected
T1 construct: extracellular domain; also called hCD112 ligand; not shown: Fc domain of human IgG1
T1 sequence (looked up): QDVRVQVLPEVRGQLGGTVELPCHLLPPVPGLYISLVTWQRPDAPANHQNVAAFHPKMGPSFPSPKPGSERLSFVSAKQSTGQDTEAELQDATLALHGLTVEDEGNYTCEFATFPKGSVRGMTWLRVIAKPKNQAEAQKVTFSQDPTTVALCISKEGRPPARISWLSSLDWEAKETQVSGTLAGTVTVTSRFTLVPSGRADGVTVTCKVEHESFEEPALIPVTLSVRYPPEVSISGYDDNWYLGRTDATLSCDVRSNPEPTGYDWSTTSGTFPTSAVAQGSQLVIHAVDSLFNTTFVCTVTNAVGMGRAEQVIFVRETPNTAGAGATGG
Description: (§1) Kinetic analyses of the bindings of WT or mutated hCD112R-ECD-mFc proteins to H733 and hCD112-ECD were performed on a Biacore T200 instrument (Biacore, GE Healthcare). For the single-cycle SPR analysis, anti-mFc Ab (Thermo Fisher) was covalently attached to surfaces of a CM5 sensor chip using an amine coupling kit (GE Healthcare). WT or mutated hCD112R-ECD mFc fusion proteins were captured on the chip and H733-hIgG4 or hCD112-ECD-hFc were then injected. For the multi-cycle SPR analysis, anti-hFc Ab (Thermo Fisher) was covalently attached to surfaces of a CM5 sensor chip using an amine coupling kit (GE Healthcare). H733-hIgG4 or hCD112-ECD-hFc protein was captured on the chip and 2-fold serially diluted WT or mutated hCD112R-ECD-mFc proteins (3.125-100 nM) were then injected. Binding kinetics were evaluated using a 1:1 Langmuir binding model. The association rates (ka), dissociation rates (kd), and affinity constants (KD) were calculated using Biacore T200 evaluation software.

[2] = target: T1, hCD112-ECD-hFc (extracellular domain of …); experiment: SPR (Biacore T200), multi-cycle; hCD112-ECD-hFc captured on anti-hFc Ab, hCD112R-ECD-mFc variant injected (3.125-100 nM); 1:1 Langmuir [Cont') C]
Description: as §1

[3] = target: T1, hCD112-ECD-hFc (extracellular domain of …); experiment: SPR (Biacore T200), multi-cycle; hCD112-ECD-hFc captured on anti-hFc Ab, hCD112R-ECD-mFc WT injected (3.125-100 nM); 1:1 Langmuir [Cont') C]
Description: as §1

[4] = target: T1, hCD112-ECD-hFc (extracellular domain of …); experiment: SPR (Biacore T200), multi-cycle; hCD112-ECD-hFc captured on anti-hFc Ab, hCD112R-ECD-mFc variant injected [Cont') C]
Description: as §1

[5] = target: human CD112R, full length, expressed on cells (YTS-hCD112R; Jurkat-NFAT-luc-hCD112R) (human) (UniProt Q6DKI7); experiment: cell-based or functional assay
[6] = target: T2, human CD112R, full length, expressed on cells (YTS-hCD112R; Jurkat-NFAT-luc-hCD112R) (human, UniProt Q6DKI7 42-326); experiment: FACS-based competition on YTS-hCD112R cells, competitor hCD112-ECD-hFc
T2 construct: whole, on cells; also called PVRIG; YTS-hCD112R cells
T2 sequence (looked up): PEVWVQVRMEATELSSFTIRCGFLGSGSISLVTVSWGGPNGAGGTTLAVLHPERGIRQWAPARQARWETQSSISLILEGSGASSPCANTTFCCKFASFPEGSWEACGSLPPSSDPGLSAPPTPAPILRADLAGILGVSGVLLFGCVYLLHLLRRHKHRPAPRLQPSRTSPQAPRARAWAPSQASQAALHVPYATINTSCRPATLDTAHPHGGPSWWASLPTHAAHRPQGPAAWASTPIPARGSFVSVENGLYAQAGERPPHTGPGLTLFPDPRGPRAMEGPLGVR
Excerpt: (§2) Then cells were washed three times with PBS containing 0.5% BSA. Ligands binding to cells were detected by adding goat anti-human IgG-FITC Ab (Pierce-Thermo Fisher Scientific).

[7] = target: T2, human CD112R, full length, expressed on …; experiment: FACS competition on YTS-hCD112R cells against hCD112-ECD-hFc, ligand detected with goat anti-human IgG-FITC
Excerpt: as §2

hCD112R-ECD-His6-Avi [8] = target: T3, hCD112R-ECD-His6-Avi (human, UniProt Q6DKI7 42-172, biotinylated (Avi tag) in the ELISA assays); experiment: SPR (Biacore T200), multi-cycle, 733-mIgG2a captured by Protein A/G, hCD112R-ECD-His6-Avi as analyte, 1:1 Langmuir model
T3 construct: range 42-172; Expressed in HEK 293F cells; Analyte in SPR, and captured on streptavidin in ELISA; also called biotinylated hCD112R-ECD-His6-Avi; not shown: C-terminal His6-Avi tag
T3 sequence (looked up): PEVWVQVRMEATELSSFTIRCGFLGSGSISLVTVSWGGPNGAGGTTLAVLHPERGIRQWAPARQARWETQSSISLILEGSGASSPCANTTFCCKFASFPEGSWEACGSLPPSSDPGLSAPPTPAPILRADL
Description: (§3) Protein A/G (Thermo Fisher) was covalently attached to surfaces of a CM5 sensor chip using an amine coupling kit (GE Healthcare). […] Binding kinetics were evaluated using a 1:1 Langmuir binding model. The association rates (ka), dissociation rates (kd), and affinity constants (KD) were calculated using Biacore T200 evaluation software.

hCD112R-ECD-His6-Avi [9] = target: T3, hCD112R-ECD-His6-Avi; experiment: SPR (Biacore T200), multi-cycle; 733-mIgG2a captured on Protein A/G, hCD112R-ECD-His6-Avi injected; 1:1 Langmuir
Description: as §3

hCD112R-ECD-His6-Avi [10] = target: T3, hCD112R-ECD-His6-Avi; experiment: SPR (Biacore T200), multi-cycle; 733-mIgG2a captured on Protein A/G, hCD112R-ECD-His6-Avi injected; 1:1 Langmuir (the text prints the rounded 0.2 nM)
Description: as §3

B1: S67P (Fc fusion, human, UniProt Q6DKI7 42-172, looked up)
Fc fusion chain: PEVWVQVRMEATELSSFTIRCGFLGPGSISLVTVSWGGPNGAGGTTLAVLHPERGIRQWAPARQARWETQSSISLILEGSGASSPCANTTFCCKFASFPEGSWEACGSLPPSSDPGLSAPPTPAPILRADL
notes: extracellular domain, amino acids 42-172; also called hCD112R-ECD-mFc S67P variant
B1: binds [1].

B2: E94A (Fc fusion, human, UniProt Q6DKI7 42-172, looked up)
Fc fusion chain: PEVWVQVRMEATELSSFTIRCGFLGSGSISLVTVSWGGPNGAGGTTLAVLHPARGIRQWAPARQARWETQSSISLILEGSGASSPCANTTFCCKFASFPEGSWEACGSLPPSSDPGLSAPPTPAPILRADL
notes: extracellular domain, amino acids 42-172; alanine-scanning variant; also called hCD112R-ECD-mFc E94A variant
A Kd [2] of 112 nM, a koff [2] of 0.0126 s⁻¹ and a kon [2] of 112000 M⁻¹ s⁻¹ were found for B2 in this work.

B3: hCD112R-ECD-mFc WT (Fc fusion, human, UniProt Q6DKI7 42-172, looked up)
chain: PEVWVQVRMEATELSSFTIRCGFLGSGSISLVTVSWGGPNGAGGTTLAVLHPERGIRQWAPARQARWETQSSISLILEGSGASSPCANTTFCCKFASFPEGSWEACGSLPPSSDPGLSAPPTPAPILRADL
notes: range 42-172; also called WT hCD112R; wildtype (WT) hCD112R protein; not shown: Fc domain of mouse IgG2a
A Kd [3] of 64.3 nM, a koff [3] of 0.00514 s⁻¹ and a kon [3] of 80000 M⁻¹ s⁻¹ were found for B3 in this work.

B4: H92A (Fc fusion, human, UniProt Q6DKI7 42-172, looked up)
Fc fusion chain: PEVWVQVRMEATELSSFTIRCGFLGSGSISLVTVSWGGPNGAGGTTLAVLAPERGIRQWAPARQARWETQSSISLILEGSGASSPCANTTFCCKFASFPEGSWEACGSLPPSSDPGLSAPPTPAPILRADL
notes: extracellular domain, amino acids 42-172; alanine-scanning variant; also called hCD112R-ECD-mFc H92A variant
A Kd [2] of 72.1 nM, a koff [2] of 0.00532 s⁻¹ and a kon [2] of 73700 M⁻¹ s⁻¹ were found for B4 in this work.

B5: L72A (Fc fusion, human, UniProt Q6DKI7 42-172, looked up)
Fc fusion chain: PEVWVQVRMEATELSSFTIRCGFLGSGSISAVTVSWGGPNGAGGTTLAVLHPERGIRQWAPARQARWETQSSISLILEGSGASSPCANTTFCCKFASFPEGSWEACGSLPPSSDPGLSAPPTPAPILRADL
notes: extracellular domain, amino acids 42-172; alanine-scanning variant; also called hCD112R-ECD-mFc L72A variant
B5: no binding [4].

B6: COM701 (humanized anti-hCD112R Ab developed by the Compugen Company, hIgG4) (antibody, from another filing, V domains shown)
VH: QVQLVQSGAEVKKPGASVKVSCKASGYTFTDYNINWVRQAPGQGLEWMGYIYPYIGGSGYAQKFQGRVTMTRDTSTSTVYMELSSLRSEDTAVYYCAREDKTARNAMDYWGQGTLVTVSS
VL: DIQMTQSPSSLSASVGDRVTITCRVSENIYSNLAWYQQKPGKAPKLLIYEATNLAEGVPSRFSGSGSGTDFTLTISSLQPEDFATYYCQHFWGTPYTFGQGTKLEIK
An EC50 of luciferase production, Jurkat-NFAT-luc-hCD112R reporter cells with CHO-OKT3scFv hCD112 cells [5] of 0.69 µg/mL was found for B6 in this work.

B7: anti-hCD112R mAb 733 (733-mIgG2a) (antibody, V domains shown)
VH: QVQLQQSGAELVRPGTSVKVSCKASGYAFTNYLIEWLKQRPGQGLEWIGVINPGHGFTNYNEKFKGKATLTADKSSSTAYMQLSSLTSDDSAVYFCARGEWDWYFDVWGAGTTVTVSS
VL: DIVMTQSQKFMSTSVGDRVSITCKASQNVGTAVAWYQQKPGQSPKLLIYSTSNRYTGVPDRFTGSGSGTDFTLTISNLQSEDLADYFCQQCSSYPFTFGSGTKLEIK
notes: VH and VL were cloned onto the constant regions of mouse IgG2a heavy and light chains (full-length mIgG2a, made in HEK 293F)
B7 was tested, and the IC50 [6] was 0.29 µg/mL, the “IC50 (read off the curve)” value [7] was roughly 2 µg/mL and the Kd (hCD112R-ECD-His6-Avi [8]) was 0.2 nM. It also gave a koff (hCD112R-ECD-His6-Avi [9]) of 0.000888 s⁻¹, a kon (hCD112R-ECD-His6-Avi [9]) of 4.49e+06 M⁻¹ s⁻¹ and a Kd (hCD112R-ECD-His6-Avi [10]) of 0.198 nM.
